Experimental data from publication PMC11497405.
Values belong to the substance of their own block, whether it stands above or below them.

Assays:
Assay in all cases: SEC; size exclusion chromatography coupled online to ICP-sfMS (HPLC-ICP-MS) with diode array detection, metal-free HPLC system; apparent MW from a calibration curve; purified MTs with their bound metals
[1] = biological target: native (non-tagged) Brassica napus metallothionein BnMT3b (Brassica napus)
[2] = biological target: native (non-tagged) Brassica napus metallothionein BnMT2 (Brassica napus)
[3] = biological target: native (non-tagged) Brassica napus metallothionein BnMT3a (Brassica napus)

stoichiometry N [1]: 2
Substance: native (non-tagged) Brassica napus metallothionein BnMT3b (natural protein)

stoichiometry N [2]: 2
Substance: native (non-tagged) Brassica napus metallothionein BnMT2 (natural protein)

stoichiometry N [3]: 2
Substance: native (non-tagged) Brassica napus metallothionein BnMT3a (natural protein)
